The assay addresses human platelets (CD61 APC-positive gate P1). Put plainly: flow cytometry on diluted human whole blood, platelets gated as CD61 APC-positive (P1), PE goat anti-human IgG Fc secondary [panel hIgG4 iso : P1].

The substance hIgG4-isotype control (antibody) showed a V2R (% of CD61-positive P1 events right of the PE gate) of 0.11%.

Source of the values: US20230312709A1.
